Results published in patent publication US20140127724A1.
Where “and” joins values, the source holds several entries; their conditions need not be identical. Identical values can stand only once.

Legend:
[1] = target: human fragile X mental retardation protein (FMRP) (human) (UniProt Q06787); experiment: Luminex capture immunoassay, 1.25 ug human lymphoblastoid control extract
[2] = target: mouse fragile X mental retardation protein (FMRP) (mouse) (UniProt P35922); experiment: Luminex capture immunoassay, 40 ug mouse brain extract
[3] = target: mouse fragile X mental retardation protein (FMRP) (mouse) (UniProt P35922); experiment: Luminex capture immunoassay, 80 ug mouse brain extract
[4] = target: mouse fragile X mental retardation protein (FMRP) (mouse) (UniProt P35922); experiment: Luminex capture immunoassay, 1.25 ug mouse brain extract
[5] = target: human fragile X mental retardation protein (FMRP) (human) (UniProt Q06787); experiment: Luminex capture immunoassay, 80 ug human lymphoblastoid control extract
[6] = target: human fragile X mental retardation protein (FMRP) (human) (UniProt Q06787); experiment: Luminex capture immunoassay, 5 ug human lymphoblastoid control extract
[7] = target: mouse fragile X mental retardation protein (FMRP) (mouse) (UniProt P35922); experiment: Luminex capture immunoassay, 2.5 ug mouse brain extract
[8] = target: human fragile X mental retardation protein (FMRP) (human) (UniProt Q06787); experiment: Luminex capture immunoassay, 20 ug human lymphoblastoid control extract
[9] = target: human fragile X mental retardation protein (FMRP) (human) (UniProt Q06787); experiment: Luminex capture immunoassay, 40 ug human lymphoblastoid control extract
[10] = target: mouse fragile X mental retardation protein (FMRP) (mouse) (UniProt P35922); experiment: Luminex capture immunoassay, 10 ug mouse brain extract
[11] = target: mouse fragile X mental retardation protein (FMRP) (mouse) (UniProt P35922); experiment: Luminex capture immunoassay, 20 ug mouse brain extract
[12] = target: human fragile X mental retardation protein (FMRP) (human) (UniProt Q06787); experiment: Luminex capture immunoassay, 10 ug human lymphoblastoid control extract
[13] = target: human fragile X mental retardation protein (FMRP) (human) (UniProt Q06787); experiment: Luminex capture immunoassay, 2.5 ug human lymphoblastoid control extract
[14] = target: mouse fragile X mental retardation protein (FMRP) (mouse) (UniProt P35922); experiment: Luminex capture immunoassay, 5 ug mouse brain extract

For anti-PrP mAb 3F4 (antibody), the phycoerythrin fluorescence (MFI) [1] was 5 MFI, the phycoerythrin fluorescence (MFI) [2] was 36 MFI and 39.5 MFI and the phycoerythrin fluorescence (MFI) [3] was 51 MFI and 49 MFI. The phycoerythrin fluorescence (MFI) [4] was 7 MFI and 5 MFI, the phycoerythrin fluorescence (MFI) [5] was 6 MFI and the phycoerythrin fluorescence (MFI) [6] was 5 MFI. The phycoerythrin fluorescence (MFI) [7] was 7 MFI and 6 MFI, the phycoerythrin fluorescence (MFI) [8] was 5 MFI and 6 MFI and the phycoerythrin fluorescence (MFI) [9] was 5 MFI and 6 MFI. For the same substance, the phycoerythrin fluorescence (MFI) [10] was 11 MFI and 10 MFI, the phycoerythrin fluorescence (MFI) [11] was 17.5 MFI and 18 MFI and the phycoerythrin fluorescence (MFI) [12] was 5 MFI and 4 MFI. For the same substance, the phycoerythrin fluorescence (MFI) [13] was 6 MFI and the phycoerythrin fluorescence (MFI) [14] was 7 MFI and 8 MFI.
